From the nanobody polyreactivity screen of Harvey et al. (2022)

Assay: yeast display, Sf9 membrane polyspecificity reagent, FACS + sequencing; frameworks hold sequencing errors
How it was run: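 Galactose induction of a Saccharomyces cerevisiae BJ5465 synthetic nanobody display library ran 36–48 hours. The cells were then stained for 1 hour at 4 °C with 10% biotinylated, detergent-solubilized Sf9 membrane reagent, pulled down on streptavidin microbeads and FACS-sorted into low and high (top ~1%) gates on expression and reagent-binding fluorescence. Labels for polyreactivity follow the gate of origin.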

Sequence	polyreactivity (PSR sort gate)
QVQLVESGGGIVQAGGSLRLSCAASGYNFRSYVMGWYRQAPGKERELVAAISVSGGRTYYADSVKGRFTISRDNAKNTVYLQMNSLKPEDTAVYYCATDPYSYYWPSHMDYWGQGTQVTVSS	high polyreactivity
QVQLVESGGGLVQAGGSLRLSCAASGSIFDPYAMGWYRQAPGKERELVAAITSDGSTNYADSVKGRFTISRDNAKNTVYLQMNSLKPEDTAVYYCAKHQFGRYVVLYPRGHWFDYWGQGTQVTVSS	low polyreactivity
QVQLVESGGGLVQAGGSLRLSCAASGSTFVNYAMGWYRQAPGKERELVAAITANGGRTYYADSVKGRFTISRDNAKNTVYLQMNSLKPEDTAVYYCNTESNLYRRRRNYWGQGTQVTVSS	low polyreactivity
QVQLEESGGGLVQAGGSLRLSCAASGSIFGLYAMGWYRQAPGKERELVAAISARGGSTYYADSVKGRFTISRDNAKNTVYLQMNSLKPEDTAVNYCATRQVSAYSYIYDYWGQGTQVTVSS	high polyreactivity
QVQLEESGGGLVQAGGSLRLSCAASGSIFTYYAMGSYRQAPGKERELVARITRGGGTTYYADSVKGRFTISRDNAKNTVYLQMNSLKPEDTAVYYCAADFFAGTPRTFDYWGQGSQVTVSS	high polyreactivity
QVQLVESGGCLVQAGGSLRLICAASGIIFWGYFMGWYRQAPAKERELVAAISRGGRTYYADSVKGRFTISRDNAKNTVYLQMNSLKPEDTAVDYCAARWGRSYLPQPFQFEYDYWGQGTQVTVSS	high polyreactivity
QVQLVESGGGLVQAGGSLRLSSAASGITFRRYAMVWYRQAPGKERELVASITRGGSTSYADSVKGRFTISRDNAKNTVYLQMNSLKPEDTAVYYCNTRFGYQFDYYYWGQGTQVTVSS	high polyreactivity
QVQLVESGGGLVQAGGSLRLSCAASGRTFLSYMGWYRQAPGKERELVAISRSGTSTYYADSVKGRFTISRDNAKNTVYLQMNSLKPEDTAVYYCAAETNTWYLFDYWGQGTQVTVSS	high polyreactivity
QVQLVESGGGLVQAGGSLRLSCADSGRTFRNYAMGRYRQAPGKERELVATITSSGASTYYADSVKGRFTISRDNAKNTVYLQMNSLKPEDTAVYYCAARPYTGRYFLGYYYWGQGTQVTVSS	high polyreactivity
QVQLVESGGGLDQAGGSLRLSCAASGSIFSHYAMGWYRQAPGKERELVAAISRSGGSTYYADSVKGRFTISRDNAKNTVYLQMNSLKPDDTAVYYCSKEGDSGYWFDYWGQGTQVTVSS	low polyreactivity
QVQLVESGGGLVQAGGSLRLSCAASGRIIGKNVMGWSRQAPGKDRELVAAISNSGGSTYYADSVKGRFTISRDNAKNTVYLQMNSLKPEDTAVYYCAVDTSYYDYWGQGTQVTVSS	high polyreactivity
QVQHVESGGGLVQAGGSLRLSCAASGFTFGVNAMGWYRQAPGKERELVAVITSGGNTYYADSVKGRYTISRDNAKNTVYLQMNSLKPEDTAVYYCAADLSYTSYATRYQGDYWGQGTQVTVSS	low polyreactivity
QVQLVESGVGLVQAGGTLRLSCAATGSIFWDYAMGWYRHAPGKERQLVASITSGGSTYYADSVKGRFTISRDNAMNTVYLQMNSLKPEETAVYYCAADGHTRHWGQTGRGAMYYWGQGTQVTVSS	low polyreactivity
QVQLVESGGGLVQAGGSLRLSCAASGRTFRGNAMRWYRQAPGKERELVAAIRWNGGSTYYADSVKGRFTISRDNAKNTVYLQMNSLKPEDSAVYYCAVSYWYSRYDYWGQGTQVTVSS	high polyreactivity
QVQLVESGGGLVKAGGSLRLSCAASGFTFGYYTMGWYRQAPGKERELVAAISSSGGSTHYADSVKGRFTISRDNAKNTVYLQMNSLKPEDTAVYYCAARYINRYPKAQPTDRSIYYWGQGTQVTVSS	high polyreactivity
QVQLVESGGGLVQAGGSLRLSCAASGFICRGNAMGLYRQAPGKERELVASISRTGDTTYYADSVKGRFTISRDNAKNTVYLQMNSLTPEDTAVYYCARRSRVGYPLDSWGQATQVTVSS	high polyreactivity
QVQLVESGGGLVQAGGSLRLSCAASGSIRYYAMGWYIQAPGKERELVAAISSRGTNTYYADSVKGRFTISRDNAKNTVYLQMNSLKPEDTAVYYCNAVVGLGYNYWGQGTQVTVSS	high polyreactivity
QVQLVESGGGLVQAGGSLRLSCAASGRIFGVNAMGWYRQAPGKERELVAAISSNGGRTYYADSVKGRFTISRDNAKNTVYLQMNSLKPEDTAVYYCATRSSVGARHYYWGQGTQVTVSS	high polyreactivity
QVQLVESGGGLVQAGGSLRLSCAASGSTLVTYAMAWYRQAPGKERELVAAISGGTGTDYADSVKGRFTISRDNAKNTVYLQMNSLKPEDTAVYYCAAKSSSNKVDYYYWGQGSQVTVSS	low polyreactivity
QVQLVESGGGLVQAGGSLRLSCAASGRTFYYYVMGWYIQAPGKERELVAAITLRGGSTYYADSVKGRFTISRDNAKNTVYLQMNSLKPEDTAVYYCNARGGSSTYGNYYWGQGTQVTVSS	low polyreactivity
QVQLVESGGGLVQAGGSLRLSCAASGRILPSNAMGWYRQAPGKERELVAAIRSGDRTYYADSVKGRFTISRDNAKNTVYLQMNSLKPEDTAVYYCAAFYHHYYRYDYWGQGTQVTVSS	low polyreactivity
QVQLVESGGGLVQAGGSLRLSCAASGSIFHTYVMGWYRQAPGKERELVASITRSGGSTYYADSVKGRFTISRDNAKKTVYLQMNSLKPEDTAVYYCAATYRTANHRYYYWGQGTQVTVSS	high polyreactivity

Sequence	polyreactivity (PSR sort gate)
QVQLVESGGGLVQAGGSLRLSCAASGGTFRFNAMGWYRQAPGKERELVAAISRGGSTNYADSVKGRFTISRDNAKNTVYLQMNSLKPEDTAVYYCAADTYHPRFWYDYWGQGTQVTVSS	low polyreactivity
QVQLVESGGGLVQAGGSLRLSCAASGSIFGFNTMGWYRQAPGKEMELVATINWSGGSTYYADSVKGRFTISRDNAKNTVYLQMNSLKPEDTAVYYCNAGPFSGRLFTTYASWGRYDYWGQGTQVTVSS	low polyreactivity
QVQLVESGGGLVQAGGSLSLSCAASGSIFESNAMGLYRQAPGKERELVAAYADSVKGRFTISRDNAKNTVYLQMNSLKPEDTAVYYCAKSLSLYVVPLYEYWGQGTQVTVSS	low polyreactivity
QVQLVESGRRLVQAGGSLRLSCAASGRIFGAYARGWSRQAPGKEREMVAAITSRGGNTYYADSVKGRFTISRDNAKNTVYLQMNSLKPEDTAVYYCRYDIWVWWSGAYDYWGQGTQVTVSS	low polyreactivity
QVQLVESGGGLVQAGGSLRLSCAASGSIFYLYAMGWYRQAPGKERELVAAISSGGSTNYADSVKGRFTISRDNAKNTVYLQMNSLKPEDTAVYYCAAGYKRLHWPKSDSFHGMYYWGQGTQVTVSS	low polyreactivity
QVQLVESGGGLVQAGGSLRLSCAASGFTFAFNDMGWYRQAPGKERELVAAITWSGGSTYYADSVKGRFTISRDNAKNTVYLQMNSLKPEDTAVYYCNADLLGYVYLNLPVGSWGQGTQVTVSS	low polyreactivity
QVQLVESGGGLVQAGGSLRLSCAASGSIFITYAMGWYRQAPGKERELVAAIRDSGDRTYYADSVKGRFTISRDKAKNTDYLQKNSLKPEDTAVYYCNARWQEPLKYDYWGQGTQVTVSS	low polyreactivity
QVQLVESGGGLVQAGGSLRLSCAASGSIFWYYAMGWYRQAPGKERELVAAISSGGSTYYADSVKGRYTISRDNAKNTVYLQMNSLKPEDTAVYYCAAGAFGQILNYWGQGTQVTVSS	high polyreactivity
QDQLVESGGGLVQARVSLRLSSAASGFIFRWNTMGWYRQAPGKERELVAAISSRGGSTYYAYSVKGRFKISRDNAKNTVYLQMNSLKPEDTAVYYCNAVRGDEYWGQGTQVTVSS	high polyreactivity
QVQLVESGGGLVQAGGSLRLSCAASGIIFYDNALGWYRQAPGKERELVAALDSDGSTDYADSVKGRFTISRDNAKNTVYLQMNSLKPEDTAVYYCAADLVWYASGRYIYRGYDYWGQGTQVTVSS	low polyreactivity
QVQLVESGGGLVQAGGSLRLSCAASGLTFRSYAMGWYRPAPGKEREFVAAITGSGDTTYYADSVKGRFTISRDNAKNTVYLQMNSLKPEDTAVYYCNADRDYLWITLYEYWGQGTQVTVSS	high polyreactivity
QVQLVESGGGLVQAGGSLRLSCAASGRIFNRNAMGWYRQAPGKERELVAAITRGGRTNYADSVKGRFTISRDNAQNTVYLHMNSLKPEDTAVYYCAAAYYGSHCRYDYWGQGTQVTVSS	high polyreactivity
QVQLVESGGGLVQAGGSLRLSCAASGRIFARYAMGWYRQAPGKERELVAAITNVGSTYADSVKGRFTISRDNAKNTVYLQMNSLKPEDTAVYYCAARSKYDQVRATFWLFDYWGQGTQVTVSS	low polyreactivity
QVQLVESGGGLVQAGGSLRLSCAASGSIFYDYALGWYRQAPGKERELVAAINSGDSTYYADSVKGRFTISRDNAKNTVYLQMNSLKPEDTAVYYCAATYFSPFIEYDYWGQGTQVTVSS	low polyreactivity
QVQLVESGGGLVQAGGSLRLSCAASGFIFARYAMGWYRQAPGKERELVAAISWSGARTYYADSVKGRFTISRDNAKNTVYLQMNSLKPEDTAVYYCNADYRKVTGDSYDYWGQGTQVTVSS	high polyreactivity
QVQLVESGGGLVQAGCSLRLSCAASGSTFFSNAMGWYRQAPGKFRELVAGITFSGGSTYYADSVKGRFTISRDYAKNTVFLQMNSLKPEDTAVYYCAASPPYKLVWWRRMDYWGQGTQVTVSS	low polyreactivity
QVQHVESGGGLVQAGGSLRLSCAASGSTFTTNAMGWYRQAPGKERELVAAITASGGRTYYADSVKGRFTISRDNAKNTVYLQMNSLKPEDTAVYYCAADSGNEYDYWGQGTQVTVSS	low polyreactivity
QVQLVESGGGLVQAGRSLRLSCAASGRTFGANAMGWYRQAPGKERELVAAISYHGTRTYYADSVKGRFTISRDNAKNTVYLQMNSLKPEDTAVYYCAAVGKPGVYQEGDYWGQGTQVTVSS	high polyreactivity
PVQLQESGGGLVQAGRSLRMSSAASGNIFDADIMGWYRQAPGKERELVACIADGGSTNYADSVKGRFTISRDNAKYTVYLQMNSLKPEDTAVYYCAAIAYPDIPTCFDYDSDYFFRGQGTQVTVSS	low polyreactivity
QVQLVESGGGLVQAGGSLRLSCAASGSIFKSNAMGWYRQAPGKERELVAAISNGGITNYADSVKGRFTISRDNAKNTVYLQMNSLKPEDTAVYYCATSDVREIWVDYWGQGTQVTVSS	low polyreactivity
QVQLVESGGGLVQAGGSLRLSCAASGSTLVYNDMGWYRQAPGKEREFVAAIRSNDGSTYYADSVKGRFTISRDNAKNTVYLQMNSLKPEDTAVYYCNARNQVYKIYYSDYRRYDYWGQGTQVTVSS	low polyreactivity
